Test results reported in patent US20100015126A1, “Methods of Binding of Cross-Beta Structures By Chaperones” (priority 2006, published 2010).

How the values were obtained:
Assay in all cases: cell-based or functional assay
synthetic peptide 6BB10 = target: synthetic peptide 6BB10
synthetic peptide 6BB9 = target: synthetic peptide 6BB9
[1] = target: synthetic human Aβ16-22 (6BB12) (human)
synthetic peptide 6BB13 = target: synthetic peptide 6BB13
synthetic peptide 6BB11 = target: synthetic peptide 6BB11
[2] = target: synthetic human Aβ25-35 (6BB6) (human)

Chain of recombinant human BiP with C-terminal linker, FLAG-tag and His-tag (BiP-FLAG-His), P11021 19-654 (P11021 other isoform, or with tags, fused parts or gaps): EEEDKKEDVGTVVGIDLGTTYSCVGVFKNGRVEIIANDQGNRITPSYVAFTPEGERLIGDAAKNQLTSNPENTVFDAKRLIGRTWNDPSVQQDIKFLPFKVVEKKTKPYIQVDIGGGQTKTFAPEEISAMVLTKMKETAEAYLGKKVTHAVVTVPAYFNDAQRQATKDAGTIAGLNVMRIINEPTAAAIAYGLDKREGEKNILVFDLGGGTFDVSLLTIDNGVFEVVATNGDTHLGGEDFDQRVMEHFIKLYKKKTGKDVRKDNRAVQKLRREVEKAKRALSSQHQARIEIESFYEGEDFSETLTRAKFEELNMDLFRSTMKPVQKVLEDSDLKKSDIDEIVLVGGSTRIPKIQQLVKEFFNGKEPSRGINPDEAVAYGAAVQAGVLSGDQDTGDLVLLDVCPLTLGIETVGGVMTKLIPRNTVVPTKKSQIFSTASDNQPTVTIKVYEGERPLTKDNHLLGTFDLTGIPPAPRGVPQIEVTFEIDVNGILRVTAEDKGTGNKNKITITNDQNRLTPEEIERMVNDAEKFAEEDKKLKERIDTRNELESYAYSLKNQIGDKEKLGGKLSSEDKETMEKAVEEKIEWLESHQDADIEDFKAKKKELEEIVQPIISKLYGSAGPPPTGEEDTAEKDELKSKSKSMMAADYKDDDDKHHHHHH

Substance “recombinant human BiP with C-terminal linker, FLAG-tag and His-tag (BiP-FLAG-His), P11021 19-654” has a Binding to DCs (MFI ratio), BiP, mix of HSP70/BiP-binding peptides + BiP (synthetic peptide 6BB10) of 1.8 MFI ratio, a Binding to DCs (MFI ratio), BiP, mix of HSP70/BiP-binding peptides + BiP (synthetic peptide 6BB9) of 1.8 MFI ratio and a Binding to DCs (MFI ratio), BiP, Aβ16-22/Aβ25-35 + BiP [1] of 261 MFI ratio. It also gave a Binding to DCs (MFI ratio), BiP, mix of HSP70/BiP-binding peptides + BiP (synthetic peptide 6BB13) of 1.8 MFI ratio, a Binding to DCs (MFI ratio), BiP, mix of HSP70/BiP-binding peptides + BiP (synthetic peptide 6BB11) of 1.8 MFI ratio and a Binding to DCs (MFI ratio), BiP, Aβ16-22/Aβ25-35 + BiP [2] of 261 MFI ratio.
